From publication PMC9663308, “AAA+ protease-adaptor structures reveal altered conformations and ring specialization” (Nature Structural & Molecular Biology, 2022) come the findings set out here.

The chains are these.
B1: LLYVQRDSKEC-fluorescein N-degron synthetic peptide (peptide)
peptide: LLYVQRDSKEC-fluorescein
modifications: not fully specified (residue 11); printed as LLYVQRDSKEC-fluorescein
notes: synthetic N-degron peptide, molecular weight 1779.9 g/mol; also called fluorescein-labeled N-degron peptide; N-degron peptide; source: synthetic peptide (21st Century Biochemicals)
B2: ClpS adaptor (natural protein, E. coli)
chain: MGKTNDWLDFDQLAEEKVRDALKPPSMYKVILVNDDYTPMEFVIDVLQKFFSYDVERATQLMLAVHYQGKAICGVFTAEVAETKVAMVNKYARENEHPLLCTLEKA
notes: ClpS, E. coli, ~10 kDa; N-terminal extension (NTE) res; 2–26 and core domain res; 27–106; The NTE (res. 2–26) and the core (res. 27–106) are both spoken of, so the whole protein is likely; also called native ClpS; source: E. coli BL21(DE3), purified as described for His6-SUMO-fusion proteins
B3: ClpA (laboratory 'wild-type' ClpA carrying M169T), hexamer (enzyme, E. coli, UniProt P0ABH9 1-758, looked up)
chain: MLNQELELSLNMAFARAREHRHEFMTVEHLLLALLSNPSAREALEACSVDLVALRQELEAFIEQTTPVLPASEEERDTQPTLSFQRVLQRAVFHVQSSGRNEVTGANVLVAIFSEQESQAAYLLRKHEVSRLDVVNFISHGTRKDEPTQSSDPGSQPNSEEQAGGEERTENFTTNLNQLARVGGIDPLIGREKELERAIQVLCRRRKNNPLLVGESGVGKTAIAEGLAWRIVQGDVPEVMADCTIYSLDIGSLLAGTKYRGDFEKRFKALLKQLEQDTNSILFIDEIHTIIGAGAASGGQVDAANLIKPLLSSGKIRVIGSTTYQEFSNIFEKDRALARRFQKIDITEPSIEETVQIINGLKPKYEAHHDVRYTAKAVRAAVELAVKYINDRHLPDKAIDVIDEAGARARLMPVSKRKKTVNVADIESVVARIARIPEKSVSQSDRDTLKNLGDRLKMLVFGQDKAIEALTEAIKMARAGLGHEHKPVGSFLFAGPTGVGKTEVTVQLSKALGIELLRFDMSEYMERHTVSRLIGAPPGYVGFDQGGLLTDAVIKHPHAVLLLDEIEKAHPDVFNILLQVMDNGTLTDNNGRKADFRNVVLVMTTNAGVRETERKSIGLIHQDNSTDAMEEIKKIFTPEFRNRLDNIIWFDHLSTDVIHQVVDKFIVELQVQLDQKGVSLEVSQEARNWLAEKGYDRAMGARPMARVIQDNLKKPLANELLFGSLVDGGQVTVALDKEKNELTYGFQSAQKHKAEAAH
notes: ClpA, E. coli, AAA+ unfoldase with D1 and D2 modules; full-length with the M169T substitution that helps overexpression; also called ClpA6; WTClpA
B4: ClpP-His6, 14-mer (enzyme)
chain: not shown
notes: ClpP peptidase, E. coli; The atomic models hold one heptameric ClpP ring; also called ClpP14; ClpP7 ring; copies: 14

Ends that are not written are not given here.

The data set “ClpS adaptor” has as its target B2. Put plainly: fluorescence polarisation; fluorescence anisotropy at equilibrium; ClpS alone (1.25–30 µM) titrated against 100 nM …-fluorescein; 30 °C, HO buffer, 2 mM ATPγS. As to conditions: both partners purified.
In data set [1] the target is B3. The experiment in a line: cryo-EM structure; ClpA6 (4 µM), ClpP14 (8 µM), ClpS (13 µM) and YLFVQELA-GFP (13 µM) mixed in assembly buffer (50 mM HEPES-KOH pH 7.5, 300 mM KCl, 5 mM MgCl2, 2 mM TCEP, 4% glycerol, 2 mM ATPγS), 5 min at 25 °C; largest complex from Superdex-200 taken for single-particle cryo-EM. To be noted: both partners purified.
Data set [2] deals with the molecule itself. Described as above.
The data set “ClpP-His6, 14-mer” deals with B4. Described as above. To be noted: both partners purified.

In the case of B1, in the data set with ClpS adaptor, the binding result was “binds”.

On to B2, for which the binding result in data set [1] is on record as “binds”.

For the molecule B3, the “stoichiometry N” value in data set [2] is 6; with ClpP-His6, 14-mer, 2 ClpA hexamers per ClpP 14-mer.

With B4, the binding result in data set [1] was “binds”. Further, in data set [2], the “stoichiometry N” value is 14.
